{
  "source": "paper doi:10.1101/2025.06.22.660944",
  "about": "“Structures of MmpL complexes reveal the assembly and mechanism of this family of transporters” (bioRxiv, 2025)",
  "molecules": {"B1": {"name": "meromycolate extension acyl carrier protein M (AcpM) (natural protein, UniProt A0R0B3 1-99, looked up)", "chain": "MAATQEEIIAGLAEIIEEVTGIEPSEVTPEKSFVDDLDIDSLSMVEIAVQTEDKYGVKIPDEDLAGLRTVGDVVAYIQKLEEENPEAAAALREKFAADQ", "notes": "AcpM, meromycolate extension acyl carrier protein M, of the M. smegmatis host; identified from the cryo-EM map (manual building, DeepTracer) and confirmed by proteomics; Not overexpressed; came along with MmpL5 from the host cells; source: endogenous, M. smegmatis MC2-155; found in the detergent-solubilized crude membranes enriched by sucrose cushion centrifugation"}},
  "key": {"[1]": {"biological_target": "MmpL5 transporter (M. smegmatis, MSMEG_1382) (M. smegmatis) (UniProt A0QS80)", "assay": "cryo-EM structure; particle class 3: dipartite AcpM-MmpL5 trimeric complex, 3.37 Å; same LMNG-solubilized crude membrane sample, Build and Retrieve processing"}, "[2]": {"biological_target": "MmpL5 transporter (M. smegmatis, MSMEG_1382) (M. smegmatis) (UniProt A0QS80)", "assay": "cryo-EM structure; particle class 2: tripartite AcpM-MmpL5-MmpS5 trimeric complex, 2.81 Å; same LMNG-solubilized crude membrane sample, Build and Retrieve processing"}, "[3]": {"biological_target": "T1, MmpL5 transporter (M. smegmatis, MSMEG_1382) (M. smegmatis, UniProt A0QS80 1-967)", "T1 construct": "MmpL5, M. smegmatis, gene MSMEG_1382; 12 transmembrane helices and periplasmic subdomains PD1-PD3 (PD3 residues 499-684); Seen as a monomer (one chain per AcpM-MmpL5 unit in 2D arrays) and as a homotrimer (in AcpM-MmpL5-MmpS5 and trimeric AcpM-MmpL5) in the same sample; copies therefore left empty; also called mycobacterial membrane protein large 5; source: M. smegmatis MC2-155, co-expressed with …", "T1 sequence (looked up)": "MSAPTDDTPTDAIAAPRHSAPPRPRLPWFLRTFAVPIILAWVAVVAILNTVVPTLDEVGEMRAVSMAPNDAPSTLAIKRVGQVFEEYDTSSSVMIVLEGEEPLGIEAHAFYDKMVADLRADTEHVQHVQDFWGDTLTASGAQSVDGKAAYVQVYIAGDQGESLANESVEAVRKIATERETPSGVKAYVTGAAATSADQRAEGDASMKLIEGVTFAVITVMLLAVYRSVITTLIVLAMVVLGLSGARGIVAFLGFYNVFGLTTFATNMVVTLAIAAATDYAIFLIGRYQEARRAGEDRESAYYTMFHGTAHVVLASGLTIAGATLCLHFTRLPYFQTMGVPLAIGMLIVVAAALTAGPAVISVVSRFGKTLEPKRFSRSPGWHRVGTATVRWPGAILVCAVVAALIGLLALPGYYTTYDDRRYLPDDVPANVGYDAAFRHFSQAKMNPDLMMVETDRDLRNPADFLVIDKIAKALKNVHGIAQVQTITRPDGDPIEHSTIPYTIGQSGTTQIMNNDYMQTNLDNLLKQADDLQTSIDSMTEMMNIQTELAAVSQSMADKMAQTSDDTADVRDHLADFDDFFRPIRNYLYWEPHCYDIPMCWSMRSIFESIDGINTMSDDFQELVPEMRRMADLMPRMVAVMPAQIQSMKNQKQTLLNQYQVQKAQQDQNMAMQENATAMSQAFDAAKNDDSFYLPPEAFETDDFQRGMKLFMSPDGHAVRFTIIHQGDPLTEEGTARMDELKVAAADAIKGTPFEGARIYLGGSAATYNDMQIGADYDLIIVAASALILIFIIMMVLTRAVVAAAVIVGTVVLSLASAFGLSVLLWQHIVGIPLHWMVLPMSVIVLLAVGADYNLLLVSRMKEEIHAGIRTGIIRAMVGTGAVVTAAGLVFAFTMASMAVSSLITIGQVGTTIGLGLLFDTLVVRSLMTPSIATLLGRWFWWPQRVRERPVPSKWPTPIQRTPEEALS", "assay": "cryo-EM structure; particle class 1: AcpM-MmpL5 monomeric units in 2D arrays, 3.35 Å; LMNG-solubilized crude M. smegmatis membranes enriched by sucrose cushion, Build and Retrieve processing", "details": "partners not purified"}, "[4]": {"biological_target": "T1, MmpL5 transporter (M. smegmatis, …)", "assay": "cryo-EM structure; particle class 2: tripartite AcpM-MmpL5-MmpS5 trimeric complex, 2.81 Å; same LMNG-solubilized crude membrane sample, Build and Retrieve processing", "details": "partners not purified"}},
  "data": [
    {"molecule": "MmpL5 transporter (M. smegmatis, MSMEG_1382) (from UniProt A0QS80 1-967) (natural protein)", "values": [
      {"measurement": "stoichiometry N", "setting": "[1]", "result": 3},
      {"measurement": "stoichiometry N", "setting": "[2]", "result": 3}
    ]},
    {"molecule": "MmpS5 adaptor (M. smegmatis, MSMEG_1381) (natural protein)", "values": [
      {"measurement": "stoichiometry N (MmpS5 per MmpL5 (3:3))", "setting": "[2]", "result": 1}
    ]},
    {"molecule": "B1", "values": [
      {"measurement": "stoichiometry N", "setting": "[3]", "result": "1 AcpM per MmpL5 (1:1)"},
      {"measurement": "stoichiometry N", "setting": "[4]", "result": "1 AcpM per MmpL5 (3:3)"}
    ]}
  ]
}
